Where a chain is given by its changes, count along the chain named. One block for each binder: values may come before it.
Tests used:
[1] = biological target: T1, hEGFR-6-his (SinoBiological) (human, UniProt P00533 25-645); test: ELISA; printed value although curve is flat
[2] = biological target: T1, hEGFR-6-his (SinoBiological); test: ELISA

B1: IgFD-7(anti-CD19/CD3) (bispecific antibody)
chain 1: EVQLVESGGGLVQPGGSLRLSCAASGFTFNTYAMNWVRQAPGKGLEWVARIRSKYNNYATYYADSVKDRFTISRDDSKNTLYLQMNSLRAEDTAVYYCVRHGNFGNSYVSWFAYWGQGTLVTVSSASTKGPSVFPLAPSSKSTSGGTAALGCLVKDYFPEPVTVSWNSGALTSGVHTFPAVLQSSGLYSLSSVVTVPSSSLGTQTYICNVNHKPSNTKVDKKVEPKSCDKTHTCPPCPAPPVAGPSVFLFPPKPKDTLMISRTPEVTCVVVDVSHEDPEVKFNWYVDGVEVHNAKTKPREEQYNSTYRVVSVLTVLHQDWLNGKEYKCKVSNKGLPSSIEKTISKAKGQPREPQVYTLPPSRDELTKNQVSLTCLVKGFYPSDIAVEWESNGQPENNYKTTPPVLDSDGSFFLYSKLTVDKSRWQQGNVFSCSVMHEALHNHYTQKSLSLSPGK
chain 2: QAVVTQEPSLTVSPGGTVTLTCRSSTGAVTTSNYANWVQQKPDHLFRGLIGGTNKRAPGTPARFSGSLLGDKAALTISGAQPEDEAEYYCALWYSNLWVFGGGTKLTVLKRTVAAPSVFIFPPSDEQLKSGTASVVCLLNNFYPREAKVQWKVDNALQSGNSQESVTEQDSKDSTYSLSSTLTLSKADYEKHKVYACEVTHQGLSSPVTKSFNRGECDKTHTCPPCPAPPVAGPSVFLFPPKPKDTLMISRTPEVTCVVVDVSHEDPEVKFNWYVDGVEVHNAKTKPREEQYNSTYRVVSVLTVLHQDWLNGKEYKCKVSNKGLPSSIEKTISKAKGQPREPQVYTLPPSRDELTKNQVSLTCLVKGFYPSDIAVEWESNGQPENNYKTTPPVLDSDGSFFLYSKLTVDKSRWQQGNVFSCSVMHEALHNHYTQKSLSLSPGKSGGGGSGGGGSGGGGSDIQMTQTTSSLSASLGDRVTISCRASQDISKYLNWYQQKPDGTVKLLIYHTSRLHSGVPSRFSGSGSGTDYSLTISNLEQEDIATYFCQQGNTLPYTFGGGTKLEITGGGGSGGGGSGGGGSEVKLQESGPGLVAPSQSLSVTCTVSGVSLPDYGVSWIRQPPRKGLEWLGVIWGSETTYYNSALKSRLTIIKDNSKSQVFLKMNSLQTDDTAIYYCAKHYYYGGSYAMDYWGQGTSVTVSS
Kd [1]: 0.161 nM

B4: IgFD-31(anti-CD3/EGFR) (bispecific antibody)
chain 1: EVQLVESGGGLVQPGGSLRLSCAASGFTFNTYAMNWVRQAPGKGLEWVARIRSKYNNYATYYADSVKDRFTISRDDSKNTLYLQMNSLRAEDTAVYYCVRHGNFGNSYVSWFAYWGQGTLVTVSSASTKGPSVFPLAPSSKSTSGGTAALGCLVKDYFPEPVTVSWNSGALTSGVHTFPAVLQSSGLYSLSSVVTVPSSSLGTQTYICNVNHKPSNTKVDKKVEPKSCGGSGAKLAALKAKLAALKGGGGSDKTHTCPPCPAPPVAGPSVFLFPPKPKDTLMISRTPEVTCVVVDVSHEDPEVKFNWYVDGVEVHNAKTKPREEQYNSTYRVVSVLTVLHQDWLNGKEYKCKVSNKGLPSSIEKTISKAKGQPREPQVYTLPPSRDELTKNQVSLTCLVKGFYPSDIAVEWESNGQPENNYKTTPPVLDSDGSFFLYSKLTVDKSRWQQGNVFSCSVMHEALHNHYTQKSLSLSPGK
chain 2: QAVVTQEPSLTVSPGGTVTLTCRSSTGAVTTSNYANWVQQKPDHLFRGLIGGTNKRAPGTPARFSGSLLGDKAALTISGAQPEDEAEYYCALWYSNLWVFGGGTKLTVLKRTVAAPSVFIFPPSDEQLKSGTASVVCLLNNFYPREAKVQWKVDNALQSGNSQESVTEQDSKDSTYSLSSTLTLSKADYEKHKVYACEVTHQGLSSPVTKSFNRGECGGGGSELAALEAELAALEAGGSGDKTHTCPPCPAPPVAGPSVFLFPPKPKDTLMISRTPEVTCVVVDVSHEDPEVKFNWYVDGVEVHNAKTKPREEQYNSTYRVVSVLTVLHQDWLNGKEYKCKVSNKGLPSSIEKTISKAKGQPREPQVYTLPPSRDELTKNQVSLTCLVKGFYPSDIAVEWESNGQPENNYKTTPPVLDSDGSFFLYSKLTVDKSRWQQGNVFSCSVMHEALHNHYTQKSLSLSPGKGGSGGSGGGGSGGGGSDIQMTQSPSSLSASVGDRVTITCQASQDISNYLNWYQQKPGKAPKLLIYDASNLETGVPSRFSGSGSGTDFTFTISSLQPEDIATYFCQHFDHLPLAFGGGTKVEIKGGGGSGGGGSGGGGSQVQLQESGPGLVKPSETLSLTCTVSGGSVSSGDYYWTWIRQSPGKGLEWIGHIYYSGNTNYNPSLKSRLTISIDTSKTQFSLKLSSVTAADTAIYYCVRDRVTGAFDIWGQGTMVTVSS
Kd [2]: 0.161 nM

Other lines, results leading:

Kd [2]: 0.15 nM
B2: IgFD-25(anti-CD3/EGFR) (bispecific antibody)
chain 1: B1 chain 1 with S361C, T373W
chain 2: QAVVTQEPSLTVSPGGTVTLTCRSSTGAVTTSNYANWVQQKPDHLFRGLIGGTNKRAPGTPARFSGSLLGDKAALTISGAQPEDEAEYYCALWYSNLWVFGGGTKLTVLKRTVAAPSVFIFPPSDEQLKSGTASVVCLLNNFYPREAKVQWKVDNALQSGNSQESVTEQDSKDSTYSLSSTLTLSKADYEKHKVYACEVTHQGLSSPVTKSFNRGECDKTHTCPPCPAPPVAGPSVFLFPPKPKDTLMISRTPEVTCVVVDVSHEDPEVKFNWYVDGVEVHNAKTKPREEQYNSTYRVVSVLTVLHQDWLNGKEYKCKVSNKGLPSSIEKTISKAKGQPREPQVCTLPPSRDELTKNQVSLSCAVKGFYPSDIAVEWESNGQPENNYKTTPPVLDSDGSFFLVSKLTVDKSRWQQGNVFSCSVMHEALHNHYTQKSLSLSPGKGGSGGSGGGGSGGGGSDIQMTQSPSSLSASVGDRVTITCQASQDISNYLNWYQQKPGKAPKLLIYDASNLETGVPSRFSGSGSGTDFTFTISSLQPEDIATYFCQHFDHLPLAFGGGTKVEIKGGGGSGGGGSGGGGSQVQLQESGPGLVKPSETLSLTCTVSGGSVSSGDYYWTWIRQSPGKGLEWIGHIYYSGNTNYNPSLKSRLTISIDTSKTQFSLKLSSVTAADTAIYYCVRDRVTGAFDIWGQGTMVTVSS

Kd [2]: 0.139 nM
B3: IgFD-26(anti-CD3/EGFR) (bispecific antibody)
chain 1: not shown
chain 2: QAVVTQEPSLTVSPGGTVTLTCRSSTGAVTTSNYANWVQQKPDHLFRGLIGGTNKRAPGTPARFSGSLLGDKAALTISGAQPEDEAEYYCALWYSNLWVFGGGTKLTVLKRTVAAPSVFIFPPSDEQLKSGTASVVCLLNNFYPREAKVQWKVDNALQSGNSQESVTEQDSKDSTYSLSSTLTLSKADYEKHKVYACEVTHQGLSSPVTKSFNRGECDKTHTCPPCPAPELLGGPSVFLFPPKPKDTLMISRTPEVTCVVVDVSHEDPEVKFNWYVDGVEVHNAKTKPREEQYASTYRVVSVLTVLHQDWLNGKEYKCKVSNKALPAPIEKTISKAKGQPREPQVCTLPPSREEMTKNQVSLSCAVKGFYPSDIAVEWESNGQPENNYKTTPPVLDSDGSFFLVSKLTVDKSRWQQGNVFSCSVMHEALHNHYTQKSLSLSPGKGGSGGSGGGGSGGGGSDIQMTQSPSSLSASVGDRVTITCQASQDISNYLNWYQQKPGKAPKLLIYDASNLETGVPSRFSGSGSGTDFTFTISSLQPEDIATYFCQHFDHLPLAFGGGTKVEIKGGGGSGGGGSGGGGSQVQLQESGPGLVKPSETLSLTCTVSGGSVSSGDYYWTWIRQSPGKGLEWIGHIYYSGNTNYNPSLKSRLTISIDTSKTQFSLKLSSVTAADTAIYYCVRDRVTGAFDIWGQGTMVTVSS

Reference: patent publication US20220089722A1 (published 2022)
